In this series the target is streptavidin (UniProt P22629 25-183). The series is described as follows: EMSA. In general terms: A gel shift assay detects complexes by their altered migration in electrophoresis.

Results on 1 molecule are retold here after PMC2685113.

Chain of streptavidin (P22629 25-183): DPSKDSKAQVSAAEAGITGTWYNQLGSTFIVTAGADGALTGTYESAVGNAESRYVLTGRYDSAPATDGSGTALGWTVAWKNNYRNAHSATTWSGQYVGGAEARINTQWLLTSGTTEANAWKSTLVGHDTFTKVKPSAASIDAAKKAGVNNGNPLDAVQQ

B1: S1-77 (structured_RNA)
RNA: GGGCCAUCGAUGCGGCCGCCGACCAGAAUCAUGCAAGUGCGUAAGAUAGUCGCGGGUCGGCGGCCGCAUCGAUGGCC
Consider B1, for which the binding result is “binds”.
